This note sets out measurements from patent US11135246B2, “Peptides and combination of peptides for use in immunotherapy against leukemias and other cancers” (Immatics Biotechnologies GmbH, priority 2017, dated 2021).

For one assay, the target named is HLA-A*03:01 (Homo sapiens, UniProt P04439). Nature of the assay: MHC binding assay, UV-ligand exchange with β2m ELISA, HLA-A*03:01. Conditions: peptide exchange yield. An excerpt:
(§1) Candidate peptides for T cell based therapies according to the present invention were further tested for their MHC binding capacity (affinity). The individual peptide-MHC complexes were produced by UV-ligand exchange, where a UV-sensitive peptide is cleaved upon UV-irradiation, and exchanged with the peptide of interest as analyzed. Only peptide candidates that can effectively bind and stabilize the peptide-receptive MHC molecules prevent dissociation of the MHC complexes. To determine the yield of the exchange reaction, an ELISA was performed based on the detection of the light chain (β2m) of stabilized MHC complexes. The assay was performed as generally described in Rodenko et al. (Rodenko et al., 2006).
(§2) 96 well MAXISorp plates (NUNC) were coated over night with 2 ug/ml streptavidin in PBS at room temperature, washed 4× and blocked for 1 h at 37° C. in 2% BSA containing blocking buffer. Refolded HLA-A*02:01/MLA-001 monomers served as standards, covering the range of 15-500 ng/ml. Peptide-MHC monomers of the UV-exchange reaction were diluted 100-fold in blocking buffer. Samples were incubated for 1 h at 37° C., washed four times, incubated with 2 ug/ml HRP conjugated anti-β2m for 1 h at 37° C., washed again and detected with TMB solution that is stopped with […]. Absorption was measured at 450 nm. Candidate peptides that show a high exchange yield (preferably higher than 50%, most preferred higher than 75%) are generally preferred for a generation and production of antibodies or fragments thereof, and/or T cell receptors or fragments thereof, as they show sufficient avidity to the MHC molecules and prevent dissociation of the MHC complexes.

For a further assay, the target named is HLA-B*07:02 (Homo sapiens, UniProt P01889). Nature of the assay: MHC binding assay, UV-ligand exchange with β2m ELISA, HLA-B*07:02. Conditions: binding to HLA-B*07:02, UV-ligand exchange.
Description: as §1, §2

“49 (GLLEEALFY; listed as Homo sapiens) [compound 49]”: the Peptide exchange entry in the assay with HLA-A*03:01 is listed as ““++” (>20% = ++)”.

Consider “29 (RIYDEILQSK; listed as Homo sapiens) [compound 29]”, for which the Peptide exchange result with HLA-A*03:01 was ““++” (>20% = ++)”.

On to “37 (KAKKPAGAAK; listed as Homo sapiens) [compound 37]”, for which, in the assay with HLA-A*03:01, the Peptide exchange result is listed as ““+++” (>50 = +++)”.

Turning to “219 (HSYSSPSTK; listed as Homo sapiens) [compound 219]”, in the assay with HLA-A*03:01, the Peptide exchange entry was ““+++” (>50 = +++)”.

“52 (KAFNQSSTLTK; listed as Homo sapiens) [compound 52]”: in the assay with HLA-A*03:01, the Peptide exchange entry is ““+++” (>50 = +++)”.

As for “242 (SPFSFHHVL; listed as Homo sapiens) [compound 242]”, in the assay with HLA-B*07:02, the “Peptide exchange (MHC class I binding score, peptide exchange yield)” value is on record as ““++” (>20% = ++)”.

“41 (SVAHLLSKY; listed as Homo sapiens) [compound 41]”: in the assay with HLA-A*03:01, the Peptide exchange entry is ““++” (>20% = ++)”.

As for “95 (KPKAAKPKTA; listed as Homo sapiens) [compound 95]”, in the assay with HLA-B*07:02, the “Peptide exchange (MHC class I binding score, peptide exchange yield)” value was ““++” (>20% = ++)”.

Take “252 (RPHIPISKL; listed as Homo sapiens) [compound 252]”: the “Peptide exchange (MHC class I binding score, peptide exchange yield)” value in the assay with HLA-B*07:02 is reported as ““++” (>20% = ++)”.

On to “104 (RPMTPTQIGPSL; listed as Homo sapiens) [compound 104]”, for which the “Peptide exchange (MHC class I binding score, peptide exchange yield)” value with HLA-B*07:02 was ““+++” (>50 = +++)”.

Take “79 (SPVPSHWMVA; listed as Homo sapiens) [compound 79]”: in the assay with HLA-B*07:02, the “Peptide exchange (MHC class I binding score, peptide exchange yield)” value is ““+++” (>50 = +++)”.

Consider “102 (LPLSMEAKI; listed as Homo sapiens) [compound 102]”, for which, in the assay with HLA-B*07:02, the “Peptide exchange (MHC class I binding score, peptide exchange yield)” value was ““++” (>20% = ++)”.

On to “239 (APSKTSLIM; listed as Homo sapiens) [compound 239]”, for which the “Peptide exchange (MHC class I binding score, peptide exchange yield)” value with HLA-B*07:02 was ““++” (>20% = ++)”.

Consider “90 (KPKAAKPKA; listed as Homo sapiens) [compound 90]”, for which the “Peptide exchange (MHC class I binding score, peptide exchange yield)” value with HLA-B*07:02 is reported as ““++” (>20% = ++)”.

Take “249 (SPADHRGYASL; listed as Homo sapiens) [compound 249]”: in the assay with HLA-B*07:02, the “Peptide exchange (MHC class I binding score, peptide exchange yield)” value was ““++” (>20% = ++)”.

As to “96 (KPKKAPKSPA; listed as Homo sapiens) [compound 96]”, the “Peptide exchange (MHC class I binding score, peptide exchange yield)” value with HLA-B*07:02 is reported as ““+++” (>50 = +++)”.

With “88 (MPDPHLYHQM; listed as Homo sapiens) [compound 88]”, in the assay with HLA-B*07:02, the “Peptide exchange (MHC class I binding score, peptide exchange yield)” value was ““++” (>20% = ++)”.

As for “245 (SPLSHHSQL; listed as Homo sapiens) [compound 245]”, the “Peptide exchange (MHC class I binding score, peptide exchange yield)” value with HLA-B*07:02 is listed as ““++” (>20% = ++)”.

Consider “240 (SPSLPNITL; listed as Homo sapiens) [compound 240]”, for which, in the assay with HLA-B*07:02, the “Peptide exchange (MHC class I binding score, peptide exchange yield)” value is given as ““+++” (>50 = +++)”.

Regarding “226 (YLNRHLHTW; listed as Homo sapiens) [compound 226]”, the “Peptide exchange (MHC class I binding score, peptide exchange yield)” value with HLA-B*07:02 was ““++” (>20% = ++)”.

Consider “77 (RPNGNSLFTSA; listed as Homo sapiens) [compound 77]”, for which the “Peptide exchange (MHC class I binding score, peptide exchange yield)” value in the assay with HLA-B*07:02 is reported as ““+++” (>50 = +++)”.

Take “80 (KPLFKVSTF; listed as Homo sapiens) [compound 80]”: the “Peptide exchange (MHC class I binding score, peptide exchange yield)” value with HLA-B*07:02 is reported as ““++” (>20% = ++)”.

Turning to “246 (YPGWHSTTI; listed as Homo sapiens) [compound 246]”, the “Peptide exchange (MHC class I binding score, peptide exchange yield)” value with HLA-B*07:02 was ““++” (>20% = ++)”.

For the substance “241 (APAPAEKTPV; listed as Homo sapiens) [compound 241]”, in the assay with HLA-B*07:02, the “Peptide exchange (MHC class I binding score, peptide exchange yield)” value was ““+++” (>50 = +++)”.

On to “237 (SPWLHAPSL; listed as Homo sapiens) [compound 237]”, for which the “Peptide exchange (MHC class I binding score, peptide exchange yield)” value in the assay with HLA-B*07:02 was ““++” (>20% = ++)”.

Regarding “244 (MPSSDTTVTF; listed as Homo sapiens) [compound 244]”, the “Peptide exchange (MHC class I binding score, peptide exchange yield)” value with HLA-B*07:02 is given as ““+++” (>50 = +++)”.

For “232 (APRPAGSYL; listed as Homo sapiens) [compound 232]”, the “Peptide exchange (MHC class I binding score, peptide exchange yield)” value in the assay with HLA-B*07:02 was ““+++” (>50 = +++)”.

In the case of “238 (SPRSWIQVQI; listed as Homo sapiens) [compound 238]”, the “Peptide exchange (MHC class I binding score, peptide exchange yield)” value with HLA-B*07:02 was ““+++” (>50 = +++)”.

Consider “100 (YPYQERVFL; listed as Homo sapiens) [compound 100]”, for which, in the assay with HLA-B*07:02, the “Peptide exchange (MHC class I binding score, peptide exchange yield)” value was ““++” (>20% = ++)”.

As to “78 (RPRGLALVL; listed as Homo sapiens) [compound 78]”, the “Peptide exchange (MHC class I binding score, peptide exchange yield)” value with HLA-B*07:02 is reported as ““+++” (>50 = +++)”.

In the case of “229 (SPLGSLARSSL; listed as Homo sapiens) [compound 229]”, in the assay with HLA-B*07:02, the “Peptide exchange (MHC class I binding score, peptide exchange yield)” value is on record as ““++++” (>75% = ++++)”.

Turning to “89 (FPETVNNLL; listed as Homo sapiens) [compound 89]”, in the assay with HLA-B*07:02, the “Peptide exchange (MHC class I binding score, peptide exchange yield)” value is ““++” (>20% = ++)”.

“243 (LPKVQSIQL; listed as Homo sapiens) [compound 243]”: in the assay with HLA-B*07:02, the “Peptide exchange (MHC class I binding score, peptide exchange yield)” value was ““++” (>20% = ++)”.

Consider “93 (KARKSAGAA; listed as Homo sapiens) [compound 93]”, for which the “Peptide exchange (MHC class I binding score, peptide exchange yield)” value with HLA-B*07:02 is recorded as ““+++” (>50 = +++)”.

“247 (QPSPARAPAEL; listed as Homo sapiens) [compound 247]”: the “Peptide exchange (MHC class I binding score, peptide exchange yield)” value with HLA-B*07:02 is listed as ““++” (>20% = ++)”.

Take “85 (IPVSHPVL; listed as Homo sapiens) [compound 85]”: in the assay with HLA-B*07:02, the “Peptide exchange (MHC class I binding score, peptide exchange yield)” value is ““++” (>20% = ++)”.

As to “251 (QPRLFTMDL; listed as Homo sapiens) [compound 251]”, in the assay with HLA-B*07:02, the “Peptide exchange (MHC class I binding score, peptide exchange yield)” value is given as ““+++” (>50 = +++)”.

Consider “86 (IPASHPVL; listed as Homo sapiens) [compound 86]”, for which, in the assay with HLA-B*07:02, the “Peptide exchange (MHC class I binding score, peptide exchange yield)” value is ““++” (>20% = ++)”.

Take “87 (FPAPILRAV; listed as Homo sapiens) [compound 87]”: the “Peptide exchange (MHC class I binding score, peptide exchange yield)” value with HLA-B*07:02 is recorded as ““+++” (>50 = +++)”.

For “235 (SPSLPSRTL; listed as Homo sapiens) [compound 235]”, the “Peptide exchange (MHC class I binding score, peptide exchange yield)” value with HLA-B*07:02 is ““++” (>20% = ++)”.

Regarding “94 (KPKAAKPKKAAA; listed as Homo sapiens) [compound 94]”, the “Peptide exchange (MHC class I binding score, peptide exchange yield)” value in the assay with HLA-B*07:02 is listed as ““++” (>20% = ++)”.

“105 (NPLTKLLAI; listed as Homo sapiens) [compound 105]”: the “Peptide exchange (MHC class I binding score, peptide exchange yield)” value with HLA-B*07:02 is listed as ““+++” (>50 = +++)”.

Consider “254 (SPRNLQPQRAAL; listed as Homo sapiens) [compound 254]”, for which the “Peptide exchange (MHC class I binding score, peptide exchange yield)” value with HLA-B*07:02 is recorded as ““+++” (>50 = +++)”.

With “98 (YPIALTRAEM; listed as Homo sapiens) [compound 98]”, in the assay with HLA-B*07:02, the “Peptide exchange (MHC class I binding score, peptide exchange yield)” value is on record as ““+++” (>50 = +++)”.

Take “230 (KPMKSVLVV; listed as Homo sapiens) [compound 230]”: in the assay with HLA-B*07:02, the “Peptide exchange (MHC class I binding score, peptide exchange yield)” value is recorded as ““+++” (>50 = +++)”.

“84 (SPKLQIAAM; listed as Homo sapiens) [compound 84]”: in the assay with HLA-B*07:02, the “Peptide exchange (MHC class I binding score, peptide exchange yield)” value is given as ““+++” (>50 = +++)”.

Turning to “82 (APFGFLGMQSL; listed as Homo sapiens) [compound 82]”, the “Peptide exchange (MHC class I binding score, peptide exchange yield)” value with HLA-B*07:02 is reported as ““+++” (>50 = +++)”.

Consider “97 (LPFGKIPIL; listed as Homo sapiens) [compound 97]”, for which the “Peptide exchange (MHC class I binding score, peptide exchange yield)” value with HLA-B*07:02 is ““++” (>20% = ++)”.

On to “225 (LPARFYQAL; listed as Homo sapiens) [compound 225]”, for which the “Peptide exchange (MHC class I binding score, peptide exchange yield)” value with HLA-B*07:02 is listed as ““++++” (>75% = ++++)”.

For “101 (NPRYPNYMF; listed as Homo sapiens) [compound 101]”, in the assay with HLA-B*07:02, the “Peptide exchange (MHC class I binding score, peptide exchange yield)” value is ““+++” (>50 = +++)”.

Turning to “83 (IPVSRPIL; listed as Homo sapiens) [compound 83]”, in the assay with HLA-B*07:02, the “Peptide exchange (MHC class I binding score, peptide exchange yield)” value was ““+++” (>50 = +++)”.

For “255 (YPGSDRIML; listed as Homo sapiens) [compound 255]”, in the assay with HLA-B*07:02, the “Peptide exchange (MHC class I binding score, peptide exchange yield)” value is ““++” (>20% = ++)”.

As to “248 (LPYDSKHQI; listed as Homo sapiens) [compound 248]”, the “Peptide exchange (MHC class I binding score, peptide exchange yield)” value with HLA-B*07:02 is reported as ““++” (>20% = ++)”.

“227 (APINKAGSFL; listed as Homo sapiens) [compound 227]”: the “Peptide exchange (MHC class I binding score, peptide exchange yield)” value with HLA-B*07:02 was ““++++” (>75% = ++++)”.

With “91 (KPKAAKPKAA; listed as Homo sapiens) [compound 91]”, the “Peptide exchange (MHC class I binding score, peptide exchange yield)” value with HLA-B*07:02 was ““++” (>20% = ++)”.

Take “81 (SESPWLHAPSL; listed as Homo sapiens) [compound 81]”: the “Peptide exchange (MHC class I binding score, peptide exchange yield)” value with HLA-B*07:02 was ““+++” (>50 = +++)”.

In the case of “106 (KAFKWFSAL; listed as Homo sapiens) [compound 106]”, the “Peptide exchange (MHC class I binding score, peptide exchange yield)” value in the assay with HLA-B*07:02 is ““++” (>20% = ++)”.

In the case of “233 (SPRVYWLGL; listed as Homo sapiens) [compound 233]”, in the assay with HLA-B*07:02, the “Peptide exchange (MHC class I binding score, peptide exchange yield)” value was ““+++” (>50 = +++)”.
